Assay results published in US20050147614A1 (CANCER RESEARCH TECHNOLOGY, published 2005).

Legend:
[1] = target: T1, carcinoembryonic antigen (CEA) (UniProt P06731 35-685, limits assumed, biotinylated (labelled form); unlabelled CEA (Calbiochem) used as competitor in the off-rate assays); assay: yeast surface display, off-rate analysis with biotinylated CEA and excess unlabelled CEA, flow cytometry
T1 construct: also called biotinylated-CEA; bio-CEA
T1 sequence (looked up): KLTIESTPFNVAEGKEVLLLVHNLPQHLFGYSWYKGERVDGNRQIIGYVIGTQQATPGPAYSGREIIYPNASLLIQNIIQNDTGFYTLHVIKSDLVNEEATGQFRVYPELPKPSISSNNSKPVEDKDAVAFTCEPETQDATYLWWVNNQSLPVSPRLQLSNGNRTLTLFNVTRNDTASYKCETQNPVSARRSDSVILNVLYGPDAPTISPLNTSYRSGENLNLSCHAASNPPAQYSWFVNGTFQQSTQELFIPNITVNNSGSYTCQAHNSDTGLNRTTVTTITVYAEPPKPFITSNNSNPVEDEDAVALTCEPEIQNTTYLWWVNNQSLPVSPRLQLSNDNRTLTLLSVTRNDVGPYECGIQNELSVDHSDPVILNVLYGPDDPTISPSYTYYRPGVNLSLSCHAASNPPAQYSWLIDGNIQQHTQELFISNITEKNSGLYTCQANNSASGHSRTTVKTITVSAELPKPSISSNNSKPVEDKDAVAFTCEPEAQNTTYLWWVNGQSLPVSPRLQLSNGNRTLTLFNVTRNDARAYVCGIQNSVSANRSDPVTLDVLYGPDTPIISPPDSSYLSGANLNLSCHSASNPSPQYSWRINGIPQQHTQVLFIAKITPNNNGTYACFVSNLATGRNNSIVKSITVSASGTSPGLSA

[2] = target: T1, carcinoembryonic antigen (CEA); assay: yeast surface display, equilibrium titration with biotinylated CEA, flow cytometry

koff [1]: 1.2e-06 s⁻¹ | Kd [2]: 30 pM
B1: sm3E (scFv)
scFv: PYDVPDYALQASGGGGSGGGGSGGGGSASQVKLEQSGAEVVKPGASVKLSCKASGFNIKDSYMHWLRQGPGQRLEWIGWIDPENGDTEYAPKFQGKATFTTDTSANTAYLGLSSLRPEDTAVYYCNEGTPTGPYYFDYWGQGTLVTVSSGGGGSGGGGSGGGGSENVLTQSPSSMSVSVGDRVTIACSASSSVPYMHWLQQKPGKSPKLLIYLTSNLASGVPSRFSGSGSGTDYSLTISSVQPEDAATYYCQQRSSYPLTFGGGTKLEIKAAAGSEQKLISEEDL
notes: also called stabilized m3E
